Data: US20110318339A1

Experiments:
[1] = molecular target: recombinant mouse DLL4 (Cat# 1389-D4-050/CF, R&D Systems) (mouse) (UniProt Q9JI71); experiment: ELISA, mDLL4 coated 0.5 ng/ul, Fab […]
[2] = molecular target: recombinant mouse DLL4 (Cat# 1389-D4-050/CF, R&D Systems) (mouse) (UniProt Q9JI71); experiment: ELISA, mDLL4 coated 0.5 ng/ul, Fab 0.78 nM
[3] = molecular target: recombinant mouse DLL4 (Cat# 1389-D4-050/CF, R&D Systems) (mouse) (UniProt Q9JI71); experiment: ELISA, mDLL4 coated 0.5 ng/ul, Fab 6.25 nM
[4] = molecular target: recombinant mouse DLL4 (Cat# 1389-D4-050/CF, R&D Systems) (mouse) (UniProt Q9JI71); experiment: ELISA, mDLL4 coated 0.5 ng/ul, Fab 12.50 nM
[5] = molecular target: recombinant mouse DLL4 (Cat# 1389-D4-050/CF, R&D Systems) (mouse) (UniProt Q9JI71); experiment: ELISA, mDLL4 coated 0.5 ng/ul, Fab 25.00 nM
[6] = molecular target: recombinant mouse DLL4 (Cat# 1389-D4-050/CF, R&D Systems) (mouse) (UniProt Q9JI71); experiment: ELISA, mDLL4 coated 0.5 ng/ul, Fab 50.00 nM
[7] = molecular target: recombinant mouse DLL4 (Cat# 1389-D4-050/CF, R&D Systems) (mouse) (UniProt Q9JI71); experiment: ELISA, mDLL4 coated 0.5 ng/ul, Fab 100.00 nM
[8] = molecular target: recombinant human DLL4 (Cat# 1506-D4/CF, R&D Systems) (human) (UniProt Q9NR61); experiment: ELISA, DLL4 coated, Fab […]
[9] = molecular target: recombinant human DLL4 (Cat# 1506-D4/CF, R&D Systems) (human) (UniProt Q9NR61); experiment: ELISA, DLL4 coated, Fab 20 nM
[10] = molecular target: recombinant human DLL4 (Cat# 1506-D4/CF, R&D Systems) (human) (UniProt Q9NR61); experiment: ELISA, DLL4 coated, Fab 0.74 nM
[11] = molecular target: recombinant human DLL4 (Cat# 1506-D4/CF, R&D Systems) (human) (UniProt Q9NR61); experiment: ELISA, DLL4 coated, Fab 2.22 nM
[12] = molecular target: recombinant human DLL4 (Cat# 1506-D4/CF, R&D Systems) (human) (UniProt Q9NR61); experiment: ELISA, DLL4 coated, Fab 25 nM
[13] = molecular target: recombinant human DLL4 (Cat# 1506-D4/CF, R&D Systems) (human) (UniProt Q9NR61); experiment: ELISA, DLL4 coated, Fab 50 nM
[14] = molecular target: recombinant human DLL4 (Cat# 1506-D4/CF, R&D Systems) (human) (UniProt Q9NR61); experiment: ELISA, DLL4 coated, Fab 100 nM
[15] = molecular target: recombinant human DLL4 (Cat# 1506-D4/CF, R&D Systems) (human) (UniProt Q9NR61); experiment: ELISA, DLL4 coated, Fab 12.5 nM

Chain of recombinant mouse DLL4 (Cat# 1389-D4-050/CF, R&D Systems) (mouse) (Q9JI71 28-525 limits assumed): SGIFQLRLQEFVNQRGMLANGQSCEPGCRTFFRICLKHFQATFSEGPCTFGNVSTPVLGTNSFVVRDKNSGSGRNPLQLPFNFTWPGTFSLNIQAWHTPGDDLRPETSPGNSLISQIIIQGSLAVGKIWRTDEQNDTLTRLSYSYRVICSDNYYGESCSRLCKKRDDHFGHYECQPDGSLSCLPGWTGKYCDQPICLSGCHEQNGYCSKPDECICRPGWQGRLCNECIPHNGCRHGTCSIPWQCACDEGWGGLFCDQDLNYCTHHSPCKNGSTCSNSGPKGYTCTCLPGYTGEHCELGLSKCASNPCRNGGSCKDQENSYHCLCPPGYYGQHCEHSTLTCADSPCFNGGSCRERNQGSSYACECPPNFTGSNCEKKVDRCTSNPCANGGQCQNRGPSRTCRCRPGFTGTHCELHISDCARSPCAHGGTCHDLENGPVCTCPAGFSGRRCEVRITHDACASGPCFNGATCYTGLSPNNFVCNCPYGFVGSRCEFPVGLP

ELISA absorbance at 450 nm [8] | ELISA absorbance at 450 nm [9] | ELISA absorbance at 450 nm [10] | ELISA absorbance at 450 nm [11] | ELISA absorbance at 450 nm [12] | ELISA absorbance at 450 nm [13] | ELISA absorbance at 450 nm [14] | ELISA absorbance at 450 nm [15] | Binder | other results
– | – | – | – | – | – | – | – | Fab VH5-51_IGHD5-18*01>3_IGHJ4*01 G100K/G104T G24T/S28R/G35V (H:KT TRV) & V3-4_IGLJ1*01 M94R/S96M (L:RM) (Fab, V domains shown) VH: EVQLVQSGAEVKKPGESLKISCKTSGYRFTSYWIVWVRQMPGKGLEWMGIIYPGDSDTRYSPSFQGQVTISADKSISTAYLQWSSLKASDTAMYYCARRKYSYTYDYFDYWGQGTLVTVSS VL: QTVVTQEPSFSVSPGGTVTLTCGLSSGSVSTSYYPSWYQQTPGQAPRTLIYSTNTRSSGVPDRFSGSILGNKAALTITGAQADDESDYYCVLYRGMGISYVFGTGTKVTVL | ELISA absorbance at 450 nm [1]: 0.131 A450; ELISA absorbance at 450 nm [2]: 0.13 A450; ELISA absorbance at 450 nm [3]: 0.148 A450; ELISA absorbance at 450 nm [4]: 0.186 A450; ELISA absorbance at 450 nm [5]: 0.232 A450; ELISA absorbance at 450 nm [6]: 0.331 A450; ELISA absorbance at 450 nm [7]: 0.457 A450
0 A450 | 0.003 A450 | 0 A450 | 0 A450 | – | – | – | – | Fab VH5-51_IGHD5-18*01>3_IGHJ4*01 G100K/G104T G24L/S28R/G35V & V3-4_IGLJ1*01 M94R/S96M (Fab, V domains shown) VH: EVQLVQSGAEVKKPGESLKISCKLSGYRFTSYWIVWVRQMPGKGLEWMGIIYPGDSDTRYSPSFQGQVTISADKSISTAYLQWSSLKASDTAMYYCARRKYSYTYDYFDYWGQGTLVTVSS VL: QTVVTQEPSFSVSPGGTVTLTCGLSSGSVSTSYYPSWYQQTPGQAPRTLIYSTNTRSSGVPDRFSGSILGNKAALTITGAQADDESDYYCVLYRGMGISYVFGTGTKVTVL | –
0.001 A450 | 0.011 A450 | 0 A450 | 0.003 A450 | – | – | – | – | Fab VH5-51_IGHD5-18*01>3_IGHJ4*01 G100K/G104T S28R & V3-4_IGLJ1*01 M94R/S96M (Fab, V domains shown) VH: EVQLVQSGAEVKKPGESLKISCKGSGYRFTSYWIGWVRQMPGKGLEWMGIIYPGDSDTRYSPSFQGQVTISADKSISTAYLQWSSLKASDTAMYYCARRKYSYTYDYFDYWGQGTLVTVSS VL: QTVVTQEPSFSVSPGGTVTLTCGLSSGSVSTSYYPSWYQQTPGQAPRTLIYSTNTRSSGVPDRFSGSILGNKAALTITGAQADDESDYYCVLYRGMGISYVFGTGTKVTVL | –
– | – | – | – | 0.19 A450 | 0.2 A450 | 0.23 A450 | 0.21 A450 | Fab VH5-51_IGHD5-18*01>3_IGHJ4*01 G100K/G104T G24T/S28R/G35V Y105H & V3-4_IGLJ1*01 (Fab, V domains shown) VH: EVQLVQSGAEVKKPGESLKISCKTSGYRFTSYWIVWVRQMPGKGLEWMGIIYPGDSDTRYSPSFQGQVTISADKSISTAYLQWSSLKASDTAMYYCARRKYSYTHDYFDYWGQGTLVTVSS VL: QTVVTQEPSFSVSPGGTVTLTCGLSSGSVSTSYYPSWYQQTPGQAPRTLIYSTNTRSSGVPDRFSGSILGNKAALTITGAQADDESDYYCVLYMGSGISYVFGTGTKVTVL | –
– | – | – | – | 0.19 A450 | 0.18 A450 | 0.25 A450 | 0.21 A450 | Fab VH5-51_IGHD5-18*01>3_IGHJ4*01 G100K/G104T G24T/S28R/G35V Y105N & V3-4_IGLJ1*01 (Fab, V domains shown) VH: EVQLVQSGAEVKKPGESLKISCKTSGYRFTSYWIVWVRQMPGKGLEWMGIIYPGDSDTRYSPSFQGQVTISADKSISTAYLQWSSLKASDTAMYYCARRKYSYTNDYFDYWGQGTLVTVSS VL: QTVVTQEPSFSVSPGGTVTLTCGLSSGSVSTSYYPSWYQQTPGQAPRTLIYSTNTRSSGVPDRFSGSILGNKAALTITGAQADDESDYYCVLYMGSGISYVFGTGTKVTVL | –
– | – | – | – | 0.18 A450 | 0.19 A450 | 0.2 A450 | 0.19 A450 | Fab VH5-51_IGHD5-18*01>3_IGHJ4*01 G100K & V3-4_IGLJ1*01 (Fab, V domains shown) VH: EVQLVQSGAEVKKPGESLKISCKGSGYSFTSYWIGWVRQMPGKGLEWMGIIYPGDSDTRYSPSFQGQVTISADKSISTAYLQWSSLKASDTAMYYCARRKYSYGYDYFDYWGQGTLVTVSS VL: QTVVTQEPSFSVSPGGTVTLTCGLSSGSVSTSYYPSWYQQTPGQAPRTLIYSTNTRSSGVPDRFSGSILGNKAALTITGAQADDESDYYCVLYMGSGISYVFGTGTKVTVL | –
0.034 A450 | 0.006 A450 | 0 A450 | 0 A450 | – | – | – | – | Fab VH5-51_IGHD5-18*01>3_IGHJ4*01 G100K/G104T G24A/S28R/G35V & V3-4_IGLJ1*01 M94R/S96M (Fab, V domains shown) VH: EVQLVQSGAEVKKPGESLKISCKASGYRFTSYWIVWVRQMPGKGLEWMGIIYPGDSDTRYSPSFQGQVTISADKSISTAYLQWSSLKASDTAMYYCARRKYSYTYDYFDYWGQGTLVTVSS VL: QTVVTQEPSFSVSPGGTVTLTCGLSSGSVSTSYYPSWYQQTPGQAPRTLIYSTNTRSSGVPDRFSGSILGNKAALTITGAQADDESDYYCVLYRGMGISYVFGTGTKVTVL | –
– | – | – | – | 0.22 A450 | 0.25 A450 | 0.3 A450 | 0.24 A450 | Fab VH5-51_IGHD5-18*01>3_IGHJ4*01 G100K/G104T G24T/S28R/G35V D109Q & V3-4_IGLJ1*01 (Fab, V domains shown) VH: EVQLVQSGAEVKKPGESLKISCKTSGYRFTSYWIVWVRQMPGKGLEWMGIIYPGDSDTRYSPSFQGQVTISADKSISTAYLQWSSLKASDTAMYYCARRKYSYTYDYFQYWGQGTLVTVSS VL: QTVVTQEPSFSVSPGGTVTLTCGLSSGSVSTSYYPSWYQQTPGQAPRTLIYSTNTRSSGVPDRFSGSILGNKAALTITGAQADDESDYYCVLYMGSGISYVFGTGTKVTVL | –
– | – | – | – | 0.2 A450 | 0.24 A450 | 0.28 A450 | 0.21 A450 | Fab VH5-51_IGHD5-18*01>3_IGHJ4*01 G100K/G104T G24T/S28R/G35V Y107F & V3-4_IGLJ1*01 (Fab, V domains shown) VH: EVQLVQSGAEVKKPGESLKISCKTSGYRFTSYWIVWVRQMPGKGLEWMGIIYPGDSDTRYSPSFQGQVTISADKSISTAYLQWSSLKASDTAMYYCARRKYSYTYDFFDYWGQGTLVTVSS VL: QTVVTQEPSFSVSPGGTVTLTCGLSSGSVSTSYYPSWYQQTPGQAPRTLIYSTNTRSSGVPDRFSGSILGNKAALTITGAQADDESDYYCVLYMGSGISYVFGTGTKVTVL | –
– | – | – | – | 0.18 A450 | 0.17 A450 | 0.17 A450 | 0.19 A450 | Fab VH5-51_IGHD5-18*01>3_IGHJ4*01 G104T & V3-4_IGLJ1*01 (Fab, V domains shown) VH: EVQLVQSGAEVKKPGESLKISCKGSGYSFTSYWIGWVRQMPGKGLEWMGIIYPGDSDTRYSPSFQGQVTISADKSISTAYLQWSSLKASDTAMYYCARRGYSYTYDYFDYWGQGTLVTVSS VL: QTVVTQEPSFSVSPGGTVTLTCGLSSGSVSTSYYPSWYQQTPGQAPRTLIYSTNTRSSGVPDRFSGSILGNKAALTITGAQADDESDYYCVLYMGSGISYVFGTGTKVTVL | –
